Assay results as given in article PMC11405395 (The EMBO Journal, 2024).

Tests used:
Conditions in all cases: both partners purified
[1] = target: T1, GINS tetramer (Sld5, Psf1, Psf2, Psf3), S. cerevisiae (S. cerevisiae, UniProt Q03406 1-294; Q12488 1-208; P40359 1-213; Q12146 1-194); test: co-IP; purified proteins mixed: 10 nM FLAG-Rrm3 with 15 nM GINS, 10 min on ice; anti-FLAG M2 magnetic beads; 25 mM Hepes-KOH pH 7.6, 200 mM KOAc, 0.02% NP-40-S, 0.1 mg/mL BSA, 1 mM DTT, 10 mM Mg(OAc)2; immunoblotting
T1 construct: Sld5, GINS subunit, S. cerevisiae; Psf1, GINS subunit, S. cerevisiae; Psf2, GINS subunit, S. cerevisiae; Psf3, GINS subunit, S. cerevisiae; pJL005 with TwinStrep-Psf3; also called tetrameric GINS complex; source: purified as previously described (Yeeles et al, 2015; Lewis et al, 2022); copies: + + +
T1 sequence (looked up) 1: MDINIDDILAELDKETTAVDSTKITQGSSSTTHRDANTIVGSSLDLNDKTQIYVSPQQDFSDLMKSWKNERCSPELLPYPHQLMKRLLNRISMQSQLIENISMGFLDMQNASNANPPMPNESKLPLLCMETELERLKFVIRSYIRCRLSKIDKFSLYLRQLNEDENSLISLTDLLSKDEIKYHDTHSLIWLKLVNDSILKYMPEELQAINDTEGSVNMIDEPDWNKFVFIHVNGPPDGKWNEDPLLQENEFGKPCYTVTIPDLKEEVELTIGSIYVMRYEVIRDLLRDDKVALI
T1 sequence (looked up) 2: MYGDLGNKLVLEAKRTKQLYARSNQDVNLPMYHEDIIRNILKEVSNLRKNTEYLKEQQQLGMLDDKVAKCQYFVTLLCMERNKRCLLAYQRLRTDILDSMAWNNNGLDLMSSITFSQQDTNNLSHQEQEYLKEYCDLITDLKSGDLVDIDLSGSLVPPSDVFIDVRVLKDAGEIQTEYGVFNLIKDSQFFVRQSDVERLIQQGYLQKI
T1 sequence (looked up) 3: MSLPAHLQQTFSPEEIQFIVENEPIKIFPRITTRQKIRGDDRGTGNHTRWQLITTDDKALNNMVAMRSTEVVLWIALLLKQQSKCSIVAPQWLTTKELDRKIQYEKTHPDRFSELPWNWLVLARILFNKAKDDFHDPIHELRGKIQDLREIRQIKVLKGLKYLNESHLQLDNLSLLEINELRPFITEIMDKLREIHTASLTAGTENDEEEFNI
T1 sequence (looked up) 4: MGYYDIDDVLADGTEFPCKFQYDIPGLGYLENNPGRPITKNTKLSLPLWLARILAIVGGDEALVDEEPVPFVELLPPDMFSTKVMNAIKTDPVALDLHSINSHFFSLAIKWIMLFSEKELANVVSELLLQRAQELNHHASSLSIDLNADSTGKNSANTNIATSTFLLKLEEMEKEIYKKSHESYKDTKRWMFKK

[2] = target: T2, Homo sapiens CMG helicase (CDC45-MCM2-7-GINS) (human, UniProt P49736 1-904; P25205 1-808; P33991 1-863; P33992 1-734; Q14566 1-821; P33993 …); test: co-IP; purified proteins mixed: 10 nM RTEL1-FLAG with 15 nM hsCMG, 10 min on ice; anti-FLAG M2 magnetic beads; 25 mM Hepes-KOH pH 7.6, 100 mM KOAc, 0.02% NP-40-S, 0.1 mg/mL BSA, 1 mM DTT, 10 mM Mg(OAc)2; immunoblotting
T2 construct: MCM2, human, subunit of CMG; MCM3, human, subunit of CMG; MCM4, human, subunit of CMG; MCM5, human, subunit of CMG; MCM6, human, subunit of CMG; MCM7, human, subunit of CMG; CDC45, human, subunit of CMG; SLD5 (GINS4), human, GINS subunit of CMG (PrA-3TEV-HsSld5; eluted from IgG Sepharose with TEV protease); PSF1 (GINS1), human, GINS subunit of CMG; PSF2 (GINS2), human, GINS subunit of CMG; PSF3 …

[3] = target: T3, DNA polymerase ε (Pol2, Dpb2, Dpb3, Dpb4), S. cerevisiae (S. cerevisiae, UniProt P21951 1-2222; P24482 1-689; P27344 1-201; Q04603 1-196); test: co-IP; purified proteins mixed: 10 nM FLAG-Rrm3 with 15 nM Pol ε, 10 min on ice; anti-FLAG M2 magnetic beads; 25 mM Hepes-KOH pH 7.6, 400 mM KOAc, 0.02% NP-40-S, 0.1 mg/mL BSA, 1 mM DTT, 10 mM Mg(OAc)2; immunoblotting
T3 construct: Pol2, catalytic subunit of DNA polymerase ε, S. cerevisiae; Dpb2, second largest subunit of DNA polymerase ε, S. cerevisiae; Dpb3, subunit of DNA polymerase ε, S. cerevisiae; Dpb4, subunit of DNA polymerase ε, S. cerevisiae (DPB4-TEV-CBP); also called Polε; Pol ε; source: S. cerevisiae strain yAJ2, purified as previously described (Yeeles et al, 2015); copies: + + +
T3 sequence (P21951 whole entry, chain 1 of 4): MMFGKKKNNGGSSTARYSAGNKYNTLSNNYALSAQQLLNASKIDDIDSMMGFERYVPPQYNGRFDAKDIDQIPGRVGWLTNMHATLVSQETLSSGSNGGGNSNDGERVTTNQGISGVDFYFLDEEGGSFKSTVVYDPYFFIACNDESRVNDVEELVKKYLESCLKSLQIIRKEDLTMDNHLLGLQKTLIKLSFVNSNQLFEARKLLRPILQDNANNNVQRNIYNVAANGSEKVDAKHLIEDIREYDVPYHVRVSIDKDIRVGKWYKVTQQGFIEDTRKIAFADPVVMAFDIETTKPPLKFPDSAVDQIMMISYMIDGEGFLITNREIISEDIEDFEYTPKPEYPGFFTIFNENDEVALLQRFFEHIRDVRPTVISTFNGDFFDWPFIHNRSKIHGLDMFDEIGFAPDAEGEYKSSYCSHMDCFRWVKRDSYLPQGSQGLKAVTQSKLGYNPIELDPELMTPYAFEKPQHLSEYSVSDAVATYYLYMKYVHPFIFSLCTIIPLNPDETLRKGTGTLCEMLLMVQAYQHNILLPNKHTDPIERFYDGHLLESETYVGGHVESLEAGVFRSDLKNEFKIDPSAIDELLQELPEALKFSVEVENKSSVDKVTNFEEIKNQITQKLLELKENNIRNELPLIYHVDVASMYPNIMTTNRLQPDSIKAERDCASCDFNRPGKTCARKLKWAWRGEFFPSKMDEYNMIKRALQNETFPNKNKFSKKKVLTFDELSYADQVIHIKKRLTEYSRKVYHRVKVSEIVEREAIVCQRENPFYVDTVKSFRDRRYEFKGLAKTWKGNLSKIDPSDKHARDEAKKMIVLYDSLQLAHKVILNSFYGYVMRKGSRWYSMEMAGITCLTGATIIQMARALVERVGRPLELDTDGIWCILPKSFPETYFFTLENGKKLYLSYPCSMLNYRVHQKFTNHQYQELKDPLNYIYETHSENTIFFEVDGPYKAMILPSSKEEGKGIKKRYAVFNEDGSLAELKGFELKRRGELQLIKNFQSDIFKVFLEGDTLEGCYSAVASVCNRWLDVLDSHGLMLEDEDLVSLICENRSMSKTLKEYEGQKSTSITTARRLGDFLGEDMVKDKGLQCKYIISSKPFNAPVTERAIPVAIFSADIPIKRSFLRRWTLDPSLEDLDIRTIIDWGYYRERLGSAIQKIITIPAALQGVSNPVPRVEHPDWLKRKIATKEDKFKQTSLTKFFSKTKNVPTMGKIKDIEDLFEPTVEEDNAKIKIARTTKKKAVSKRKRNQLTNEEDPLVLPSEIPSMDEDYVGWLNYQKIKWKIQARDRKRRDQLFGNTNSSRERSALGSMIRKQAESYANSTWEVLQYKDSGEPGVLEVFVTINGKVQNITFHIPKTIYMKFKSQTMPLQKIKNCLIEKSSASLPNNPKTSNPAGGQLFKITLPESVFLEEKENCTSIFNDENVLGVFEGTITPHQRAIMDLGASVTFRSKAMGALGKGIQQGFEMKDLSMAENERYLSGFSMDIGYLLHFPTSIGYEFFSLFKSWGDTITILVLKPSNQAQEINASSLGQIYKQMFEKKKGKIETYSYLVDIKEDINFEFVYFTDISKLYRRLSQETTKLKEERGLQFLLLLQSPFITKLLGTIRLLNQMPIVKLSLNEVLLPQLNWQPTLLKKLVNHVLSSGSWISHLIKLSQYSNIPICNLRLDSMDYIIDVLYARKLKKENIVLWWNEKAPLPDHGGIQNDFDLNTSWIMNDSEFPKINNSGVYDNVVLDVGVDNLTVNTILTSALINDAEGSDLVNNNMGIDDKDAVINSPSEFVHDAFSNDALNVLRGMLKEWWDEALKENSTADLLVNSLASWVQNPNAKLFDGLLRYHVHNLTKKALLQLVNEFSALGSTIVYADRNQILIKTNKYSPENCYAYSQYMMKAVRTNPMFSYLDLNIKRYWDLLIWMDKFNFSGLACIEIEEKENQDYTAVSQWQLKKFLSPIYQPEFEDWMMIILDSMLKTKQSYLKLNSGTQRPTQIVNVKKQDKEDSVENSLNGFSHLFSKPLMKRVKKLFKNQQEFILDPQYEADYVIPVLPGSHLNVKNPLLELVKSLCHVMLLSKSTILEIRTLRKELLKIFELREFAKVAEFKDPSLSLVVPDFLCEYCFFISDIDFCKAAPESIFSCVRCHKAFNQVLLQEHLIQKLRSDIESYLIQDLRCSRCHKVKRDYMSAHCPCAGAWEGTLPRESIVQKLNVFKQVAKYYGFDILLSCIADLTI
T3 sequence (P24482 whole entry, chain 2 of 4): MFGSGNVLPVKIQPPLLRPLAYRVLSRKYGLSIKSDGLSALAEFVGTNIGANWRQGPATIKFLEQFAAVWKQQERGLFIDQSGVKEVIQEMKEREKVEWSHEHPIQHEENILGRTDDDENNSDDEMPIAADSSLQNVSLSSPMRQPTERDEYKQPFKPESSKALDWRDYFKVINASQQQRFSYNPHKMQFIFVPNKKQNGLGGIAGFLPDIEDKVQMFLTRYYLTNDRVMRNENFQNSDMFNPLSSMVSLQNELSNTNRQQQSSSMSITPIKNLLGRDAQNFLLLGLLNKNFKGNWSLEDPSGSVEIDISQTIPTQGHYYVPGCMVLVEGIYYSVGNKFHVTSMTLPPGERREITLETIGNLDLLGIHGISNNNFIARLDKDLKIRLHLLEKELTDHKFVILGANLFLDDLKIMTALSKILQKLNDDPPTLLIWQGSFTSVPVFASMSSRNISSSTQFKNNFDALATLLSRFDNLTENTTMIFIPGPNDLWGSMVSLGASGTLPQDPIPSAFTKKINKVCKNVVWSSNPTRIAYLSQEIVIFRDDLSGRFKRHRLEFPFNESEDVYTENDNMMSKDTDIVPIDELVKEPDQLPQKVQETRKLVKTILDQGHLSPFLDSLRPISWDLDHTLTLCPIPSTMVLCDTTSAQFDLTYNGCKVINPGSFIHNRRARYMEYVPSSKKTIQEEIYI
T3 sequence (P27344 whole entry, chain 3 of 4): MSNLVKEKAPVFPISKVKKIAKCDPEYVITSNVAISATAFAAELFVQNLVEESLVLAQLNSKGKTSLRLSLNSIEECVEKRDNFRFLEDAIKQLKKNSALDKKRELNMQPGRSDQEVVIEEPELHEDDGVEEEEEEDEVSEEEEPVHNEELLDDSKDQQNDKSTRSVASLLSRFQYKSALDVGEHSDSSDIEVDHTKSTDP
T3 sequence (Q04603 whole entry, chain 4 of 4): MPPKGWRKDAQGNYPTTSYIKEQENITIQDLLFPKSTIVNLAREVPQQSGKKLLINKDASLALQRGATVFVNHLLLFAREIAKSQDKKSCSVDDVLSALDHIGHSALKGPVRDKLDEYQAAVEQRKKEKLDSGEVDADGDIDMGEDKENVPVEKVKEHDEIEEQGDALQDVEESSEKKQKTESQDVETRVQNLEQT

B1: Rrm3-6A (Rrm3 F89A, Q93A, F96A, D99A, E104A, L108A) (enzyme, S. cerevisiae, UniProt P38766 1-723, looked up)
chain: MFRSHASGNKKQWSKRSSNGSTPAASASGSHAYRQQTLSSFFMGCGKKSAAASKNSTTIIDLESGDEGNRNITAPPRPRLIRNNSSSLASQSAGSAGDADPDAAFKKAVDVPRLNSYKKSSRSLSMTSSLHKTASASTTQKTYHFDEDETLREVTSVKSNSRQLSFTSTINIEDSSMKLSTDSERPAKRSKPSMEFQGLKLTVPKKIKPLLRKTVSNMDSMNHRSASSPVVLTMEQERVVNLIVKKRTNVFYTGSAGTGKSVILQTIIRQLSSLYGKESIAITASTGLAAVTIGGSTLHKWSGIGIGNKTIDQLVKKIQSQKDLLAAWRYTKVLIIDEISMVDGNLLDKLEQIARRIRKNDDPFGGIQLVLTGDFFQLPPVAKKDEHNVVKFCFESEMWKRCIQKTILLTKVFRQQDNKLIDILNAIRYGELTVDIAKTIRNLNRDIDYADGIAPTELYATRREVELSNVKKLQSLPGDLYEFKAVDNAPERYQAILDSSLMVEKVVALKEDAQVMMLKNKPDVELVNGSLGKVLFFVTESLVVKMKEIYKIVDDEVVMDMRLVSRVIGNPLLKESKEFRQDLNARPLARLERLKILINYAVKISPHKEKFPYVRWTVGKNKYIHELMVPERFPIDIPRENVGLERTQIPLMLCWALSIHKAQGQTIQRLKVDLRRIFEAGQVYVALSRAVTMDTLQVLNFDPGKIRTNERVKDFYKRLETLK
notes: Plasmid pOO16; also called 3FLAG-TEV-RRM3-6A; source: S. cerevisiae strain yOO8, purified (anti-FLAG M2 resin, HiTrap heparin); not shown: 3FLAG, N-terminal, kept
- binding result [1]: binds

B2: Rrm3-CR (Rrm3 F89D, Q93A, F96K, D99K, E104K) (enzyme, S. cerevisiae, UniProt P38766 1-723, looked up)
chain: MFRSHASGNKKQWSKRSSNGSTPAASASGSHAYRQQTLSSFFMGCGKKSAAASKNSTTIIDLESGDEGNRNITAPPRPRLIRNNSSSLDSQSAGSKGDKDPDAKFKKLVDVPRLNSYKKSSRSLSMTSSLHKTASASTTQKTYHFDEDETLREVTSVKSNSRQLSFTSTINIEDSSMKLSTDSERPAKRSKPSMEFQGLKLTVPKKIKPLLRKTVSNMDSMNHRSASSPVVLTMEQERVVNLIVKKRTNVFYTGSAGTGKSVILQTIIRQLSSLYGKESIAITASTGLAAVTIGGSTLHKWSGIGIGNKTIDQLVKKIQSQKDLLAAWRYTKVLIIDEISMVDGNLLDKLEQIARRIRKNDDPFGGIQLVLTGDFFQLPPVAKKDEHNVVKFCFESEMWKRCIQKTILLTKVFRQQDNKLIDILNAIRYGELTVDIAKTIRNLNRDIDYADGIAPTELYATRREVELSNVKKLQSLPGDLYEFKAVDNAPERYQAILDSSLMVEKVVALKEDAQVMMLKNKPDVELVNGSLGKVLFFVTESLVVKMKEIYKIVDDEVVMDMRLVSRVIGNPLLKESKEFRQDLNARPLARLERLKILINYAVKISPHKEKFPYVRWTVGKNKYIHELMVPERFPIDIPRENVGLERTQIPLMLCWALSIHKAQGQTIQRLKVDLRRIFEAGQVYVALSRAVTMDTLQVLNFDPGKIRTNERVKDFYKRLETLK
notes: Plasmid pOO15; also called 3FLAG-TEV-RRM3-CR; source: S. cerevisiae strain yOO9, purified (anti-FLAG M2 resin, HiTrap heparin); not shown: 3FLAG, N-terminal, kept
- binding result [1]: binds

B3: Rrm3Δ86-110 (enzyme, S. cerevisiae, UniProt P38766 1-723, looked up)
chain: MFRSHASGNKKQWSKRSSNGSTPAASASGSHAYRQQTLSSFFMGCGKKSAAASKNSTTIIDLESGDEGNRNITAPPRPRLIRNNSVPRLNSYKKSSRSLSMTSSLHKTASASTTQKTYHFDEDETLREVTSVKSNSRQLSFTSTINIEDSSMKLSTDSERPAKRSKPSMEFQGLKLTVPKKIKPLLRKTVSNMDSMNHRSASSPVVLTMEQERVVNLIVKKRTNVFYTGSAGTGKSVILQTIIRQLSSLYGKESIAITASTGLAAVTIGGSTLHKWSGIGIGNKTIDQLVKKIQSQKDLLAAWRYTKVLIIDEISMVDGNLLDKLEQIARRIRKNDDPFGGIQLVLTGDFFQLPPVAKKDEHNVVKFCFESEMWKRCIQKTILLTKVFRQQDNKLIDILNAIRYGELTVDIAKTIRNLNRDIDYADGIAPTELYATRREVELSNVKKLQSLPGDLYEFKAVDNAPERYQAILDSSLMVEKVVALKEDAQVMMLKNKPDVELVNGSLGKVLFFVTESLVVKMKEIYKIVDDEVVMDMRLVSRVIGNPLLKESKEFRQDLNARPLARLERLKILINYAVKISPHKEKFPYVRWTVGKNKYIHELMVPERFPIDIPRENVGLERTQIPLMLCWALSIHKAQGQTIQRLKVDLRRIFEAGQVYVALSRAVTMDTLQVLNFDPGKIRTNERVKDFYKRLETLK
notes: Plasmid pOO14; also called 3FLAG-TEV RRM3-∆86-110; source: S. cerevisiae strain yOO7, purified (anti-FLAG M2 resin, HiTrap heparin); not shown: 3FLAG, N-terminal, kept
- binding result [1]: binds

B4: Homo sapiens RTEL1 (wild-type, FLAG-tagged) (enzyme, human, UniProt Q9NZ71-1 1-1219, looked up)
chain: MPKIVLNGVTVDFPFQPYKCQQEYMTKVLECLQQKVNGILESPTGTGKTLCLLCTTLAWREHLRDGISARKIAERAQGELFPDRALSSWGNAAAAAGDPIACYTDIPKIIYASRTHSQLTQVINELRNTSYRPKVCVLGSREQLCIHPEVKKQESNHLQIHLCRKKVASRSCHFYNNVEEKSLEQELASPILDIEDLVKSGSKHRVCPYYLSRNLKQQADIIFMPYNYLLDAKSRRAHNIDLKGTVVIFDEAHNVEKMCEESASFDLTPHDLASGLDVIDQVLEEQTKAAQQGEPHPEFSADSPSPGLNMELEDIAKLKMILLRLEGAIDAVELPGDDSGVTKPGSYIFELFAEAQITFQTKGCILDSLDQIIQHLAGRAGVFTNTAGLQKLADIIQIVFSVDPSEGSPGSPAGLGALQSYKVHIHPDAGHRRTAQRSDAWSTTAARKRGKVLSYWCFSPGHSMHELVRQGVRSLILTSGTLAPVSSFALEMQIPFPVCLENPHIIDKHQIWVGVVPRGPDGAQLSSAFDRRFSEECLSSLGKALGNIARVVPYGLLIFFPSYPVMEKSLEFWRARDLARKMEALKPLFVEPRSKGSFSETISAYYARVAAPGSTGATFLAVCRGKASEGLDFSDTNGRGVIVTGLPYPPRMDPRVVLKMQFLDEMKGQGGAGGQFLSGQEWYRQQASRAVNQAIGRVIRHRQDYGAVFLCDHRFAFADARAQLPSWVRPHVRVYDNFGHVIRDVAQFFRVAERTMPAPAPRATAPSVRGEDAVSEAKSPGPFFSTRKAKSLDLHVPSLKQRSSGSPAAGDPESSLCVEYEQEPVPARQRPRGLLAALEHSEQRAGSPGEEQAHSCSTLSLLSEKRPAEEPRGGRKKIRLVSHPEEPVAGAQTDRAKLFMVAVKQELSQANFATFTQALQDYKGSDDFAALAACLGPLFAEDPKKHNLLQGFYQFVRPHHKQQFEEVCIQLTGRGCGYRPEHSIPRRQRAQPVLDPTGRTAPDPKLTVSTAAAQQLDPQEHLNQGRPHLSPRPPPTGDPGSQPQWGSGVPRAGKQGQHAVSAYLADARRALGSAGCSQLLAALTAYKQDDDLDKVLAVLAALTTAKPEDFPLLHRFSMFVRPHHKQRFSQTCTDLTGRPYPGMEPPGPQEERLAVPPVLTHRAPQPGPSRSEKTGKTQSKISSFLRQRPAGTVGAGGEDAGPSQSSGPPHGPAASEWGL
notes: RTEL1, human; the models and residue numbers are of isoform 1 (NP_057518.1), printed to residue 1219; Plasmid pTD195; The isoform is printed for the AlphaFold models; the deletion mutants use the same numbering; also called hsRTEL1; RTEL1-2FLAG; source: S. cerevisiae strain yOO1, purified (anti-FLAG M2 resin, HiLoad Superdex 200); not shown: 2XFLAG, C-terminal, kept
- binding result [2]: binds

B5: Rrm3Δ111-130 (enzyme, S. cerevisiae, UniProt P38766 1-723, looked up)
chain: MFRSHASGNKKQWSKRSSNGSTPAASASGSHAYRQQTLSSFFMGCGKKSAAASKNSTTIIDLESGDEGNRNITAPPRPRLIRNNSSSLFSQSQGSFGDDDPDAEFKKLVDHKTASASTTQKTYHFDEDETLREVTSVKSNSRQLSFTSTINIEDSSMKLSTDSERPAKRSKPSMEFQGLKLTVPKKIKPLLRKTVSNMDSMNHRSASSPVVLTMEQERVVNLIVKKRTNVFYTGSAGTGKSVILQTIIRQLSSLYGKESIAITASTGLAAVTIGGSTLHKWSGIGIGNKTIDQLVKKIQSQKDLLAAWRYTKVLIIDEISMVDGNLLDKLEQIARRIRKNDDPFGGIQLVLTGDFFQLPPVAKKDEHNVVKFCFESEMWKRCIQKTILLTKVFRQQDNKLIDILNAIRYGELTVDIAKTIRNLNRDIDYADGIAPTELYATRREVELSNVKKLQSLPGDLYEFKAVDNAPERYQAILDSSLMVEKVVALKEDAQVMMLKNKPDVELVNGSLGKVLFFVTESLVVKMKEIYKIVDDEVVMDMRLVSRVIGNPLLKESKEFRQDLNARPLARLERLKILINYAVKISPHKEKFPYVRWTVGKNKYIHELMVPERFPIDIPRENVGLERTQIPLMLCWALSIHKAQGQTIQRLKVDLRRIFEAGQVYVALSRAVTMDTLQVLNFDPGKIRTNERVKDFYKRLETLK
notes: Plasmid pOO10; source: S. cerevisiae strain yOO5, purified (anti-FLAG M2 resin, HiTrap heparin); not shown: 3FLAG, N-terminal, kept
- binding result [3]: binds
